From US8076452 (dated 2011)
Substitutions are numbered along the chain they refer to.

B1: FAB protein (FABP from bovine hearts) with N-terminal 15-amino-acid peptide motif 1 and C-terminal His-tag of 6 histidines (other)
chain: DLYDIDRNWVGHPQGFVGTWKLVDSKNFDDYMKSLGVGFATRQVGNMTKPTTIIEVNGDTVIIKTQSTFKNTEISFKLGVEFDETTADDRKVKSIVTLDGGKLVHVQKWNGQETSLVREMVDGKLILTLTHGTAVCTRTYEKQAHHHHHH
B2: FAB protein (FABP from bovine hearts) with N-terminal 15-amino-acid peptide motif 3 and C-terminal His-tag of 6 histidines (other)
chain: DVEAWLDERVPLVETFVGTWKLVDSKNFDDYMKSLGVGFATRQVGNMTKPTTIIEVNGDTVIIKTQSTFKNTEISFKLGVEFDETTADDRKVKSIVTLDGGKLVHVQKWNGQETSLVREMVDGKLILTLTHGTAVCTRTYEKQAHHHHHH
B3: FAB protein (FABP from bovine hearts) with N-terminal 15-amino-acid peptide motif 4 and C-terminal His-tag of 6 histidines (other)
chain: B2 chain with L6I, D7A, E8D, R9P, V10A, P11V, L12H, V13F, E14T

biological target: T1, streptavidin (UniProt P22629 37-163); experiment: SPR (BiacoreX, NTA chip), fusion protein immobilised, streptavidin injected
T1 construct: also called peroxidase-labeled streptavidin; streptavidin-Sepharose
Method: The measurements of the dissociation constant were performed with a BiacoreX system and the sensor chip NTA of the company Biacore. The proteins generated during the expression described in Example 1 were investigated, i.e. FAB proteins, which had at the N terminus a peptide consisting of 15 amino acids as fusion partners and at the C terminus 6 histidines, which were needed for the immobilization on the sensor chip. The binding affinity of the proteins generated during the expression to streptavidin described in Example 1 was measured in the Biacore device according to manufacturer's instructions. The protein to be investigated is on the sensor chip, and a streptavidin solution having a defined concentration is sprayed in. The interaction (binding) between the two molecules is measured by the device and quantified as so-called resonance units (RU). For the measurement, the buffers specified by the manufacturer were used.

T1 sequence (P22629 37-163 limits assumed): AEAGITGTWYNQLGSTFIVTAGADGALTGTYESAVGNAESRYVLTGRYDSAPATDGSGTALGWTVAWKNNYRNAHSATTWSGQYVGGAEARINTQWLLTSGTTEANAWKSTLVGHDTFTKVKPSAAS

Row | RU at 500 nM streptavidin [RU] | RU at 2 µM streptavidin [RU] | Binder
1 | 62 | 233 | B1
2 | 786 | 946 | B2
3 | 478 | 644 | B3
